Laboratory results published in publication PMC3638396 (Philosophical Transactions of the Royal Society B: …, 2013).

Columns and labels:
WT Ssa1p = target: T1, WT Ssa1p (yeast (S. cerevisiae), UniProt P10591 1-642); assay: co-sedimentation; called 'pull-down assay' / 'filament pull-down assay': 10 μM Ure2p fibril seeds with 20 μM WT or ΔA Ssa1p, Tris buffer pH 8.4, 30°C, 2 h; centrifuged through 40 per cent sucrose at 61 000 rpm, 30 min, 4°C; washed pellets on SDS-PAGE; settings: both partners purified
T1 construct: Ssa1p, yeast HSP70 family member, residues 1-642 (NBD, SBD, CTD); also called wild-type Ssa1p; full-length Ssa1p; source: plasmid pPROEX-HTb-Ssa1
T1 sequence (P10591 whole entry, the tested form may be a part): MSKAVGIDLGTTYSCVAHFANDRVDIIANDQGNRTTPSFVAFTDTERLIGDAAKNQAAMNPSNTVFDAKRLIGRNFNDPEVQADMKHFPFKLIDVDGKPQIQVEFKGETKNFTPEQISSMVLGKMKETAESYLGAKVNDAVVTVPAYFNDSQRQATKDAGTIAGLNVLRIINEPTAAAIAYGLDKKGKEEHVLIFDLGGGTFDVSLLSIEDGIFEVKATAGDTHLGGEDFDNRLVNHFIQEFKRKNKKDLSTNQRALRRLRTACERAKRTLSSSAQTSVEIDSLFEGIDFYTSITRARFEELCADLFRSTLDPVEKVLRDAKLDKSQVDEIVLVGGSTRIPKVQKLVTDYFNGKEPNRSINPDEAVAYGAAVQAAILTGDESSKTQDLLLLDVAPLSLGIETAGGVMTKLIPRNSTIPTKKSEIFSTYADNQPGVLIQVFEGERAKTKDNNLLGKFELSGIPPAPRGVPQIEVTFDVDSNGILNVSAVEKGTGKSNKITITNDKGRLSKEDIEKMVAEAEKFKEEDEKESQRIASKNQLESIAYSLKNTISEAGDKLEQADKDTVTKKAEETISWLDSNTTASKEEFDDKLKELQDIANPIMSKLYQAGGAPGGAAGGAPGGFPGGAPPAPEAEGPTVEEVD

[1] = target: the molecule itself; assay: quartz crystal microbalance; sonicated Ure2p fibril seeds attached to the gold sensor by Traut's reagent; 1 μM soluble Ure2p introduced, measured without flow; Tris buffer pH 8.4; elongation of the surface-bound seeds

B1: Ure2p (natural protein, Saccharomyces cerevisiae, UniProt P23202 1-354, looked up)
chain: MMNNNGNQVSNLSNALRQVNIGNRNSNTTTDQSNINFEFSTGVNNNNNNNSSSNNNNVQNNNSGRNGSQNNDNENNIKNTLEQHRQQQQAFSDMSHVEYSRITKFFQEQPLEGYTLFSHRSAPNGFKVAIVLSELGFHYNTIFLDFNLGEHRAPEFVSVNPNARVPALIDHGMDNLSIWESGAILLHLVNKYYKETGNPLLWSDDLADQSQINAWLFFQTSGHAPMIGQALHFRYFHSQKIASAVERYTDEVRRVYGVVEMALAERREALVMELDTENAAAYSAGTTPMSQSRFFDYPVWLVGDKLTIADLAFVPWNNVVDRIGINIKIEFPEVYKWTKHMMRRPAVIKALRGE
notes: Ure2p, the protein determinant of the Saccharomyces cerevisiae prion state [URE3]; a 354-residue protein; One construct used in two states: native soluble protein (DLS, solution phase of QCM) and sonicated fibril seeds (co-sedimentation, QCM sensor; seeds treated with Traut's reagent for the sensor); The state is told in each assay's format; also called native Ure2p; soluble Ure2p; source: …
WT Ssa1p
  binding result: binds
[1]
  binding result: binds
